Assays:
TRPV1-YFP [1] = test: spectraFRET in live HEK293 cells, CFP on design, YFP on TRPV1; indistinguishable from CFP+YFP negative control
TRPV1-YFP [2] = test: FRET ratio regression, design-CFP and TRPV1-YFP co-expressed in HEK293 cells; set-up: Apparent KD (FRET ratio fit): unit not given here
TRPV1-YFP [3] = test: spectraFRET in live HEK293 cells, CFP on design, YFP on TRPV1

FRET efficiency (TRPV1-YFP [1]) [%]	Apparent KD (FRET ratio fit) (TRPV1-YFP [2])	FRET ratio max (TRPV1-YFP [2])	FRET efficiency (TRPV1-YFP [3]) [%]	Binder
3.8	9.5e+09			De4-CFP (designed binder, not shown: large carriers) LPESPRFAQKIWQQSVIGDYLARFKNDRVKALKAMEDSSNNSSMHRFAEFFAKAFEDLHRYLEEL
	120000	3.86		De1-CFP (designed binder, not shown: large carriers) NGYSSEDKLRIAKRHLLPKQIERNALKKGELFVSEFAILGIILFYTDEAGVRGLEREISKLCRKAVKQLLLDKSTTSSHASGFHLHDYLGVMR
	75000	2.35	7.4	De2-CFP (designed binder, not shown: large carriers) NGYWSEDKERIAKRHLLPKQIERNALKKGELKVWEFAIFGIILFYTWEAGVRGLEREISKLCRKAVKQLLLDKSTTRSWASGFHLHDYLGVMR

Source: patent US20240166695A1, “PEPTIDIC POSITIVE ALLOSTERIC MODULATORS TARGETING TRPV1” (priority 2021, published 2024)
